IntAct's records for PubMed 23112296

B1: Keratin, type I cytoskeletal 18 (Homo sapiens), P05783 (parent)
chain: MSFTTRSTFSTNYRSLGSVQAPSYGARPVSSAASVYAGAGGSGSRISVSRSTSFRGGMGSGGLATGIAGGLAGMGGIQNEKETMQSLNDRLASYLDRVRSLETENRRLESKIREHLEKKGPQVRDWSHYFKIIEDLRAQIFANTVDNARIVLQIDNARLAADDFRVKYETELAMRQSVENDIHGLRKVIDDTNITRLQLETEIEALKEELLFMKKNHEEEVKGLQAQIASSGLTVEVDAPKSQDLAKIMADIRAQYDELARKNREELDKYWSQQIEESTTVVTTQSAEVGAAETTLTELRRTVQSLEIDLDSMRNLKASLENSLREVEARYALQMEQLNGILLHLESELAQTRAEGQRQAQEYEALLNIKVKLEAEIATYRRLLEDGEDFNLGDALDSSNSMQTIQKTTTRRIVDGKVVSETNDTKVLRH

Variants of: B1
Settings: with becn1_human BECN1, Q14457
Sequence of becn1_human BECN1, Q14457 (Q14457 whole entry): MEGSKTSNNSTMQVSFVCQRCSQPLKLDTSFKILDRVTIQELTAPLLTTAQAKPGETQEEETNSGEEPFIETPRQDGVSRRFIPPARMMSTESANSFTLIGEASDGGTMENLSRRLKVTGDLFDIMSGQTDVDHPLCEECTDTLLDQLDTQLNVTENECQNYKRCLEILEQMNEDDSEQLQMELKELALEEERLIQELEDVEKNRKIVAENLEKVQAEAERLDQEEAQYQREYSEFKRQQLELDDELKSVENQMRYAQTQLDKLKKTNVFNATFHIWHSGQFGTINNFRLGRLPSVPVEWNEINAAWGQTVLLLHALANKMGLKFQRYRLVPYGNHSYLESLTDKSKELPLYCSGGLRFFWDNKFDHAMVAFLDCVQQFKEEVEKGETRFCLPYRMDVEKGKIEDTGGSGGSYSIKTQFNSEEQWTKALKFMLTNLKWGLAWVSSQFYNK

| effect of a mutation on the interaction | Variant |
| --- | --- |
| disrupting interaction strength | S34A |
